From patent US20230265151A1, “GIP/GLP1 CO-AGONIST COMPOUNDS” (priority 2020, published 2023) come the findings set out here.

*1 amine or outer side, *2 acyl side, *3 side chain or, on linkers, in order; H or OH if unused. Where no end group is shown, it is not given here. Side-chain parts run from the residue outwards. [ ]: non-standard residue; d: D form. The star is where a group is joined. αMePhe(2-F) = C[C@](N)(Cc1ccccc1F)C(=O)O; γGlu = O=C(O)[C@H](CCC(=O)[*:2])N[*:1]; C14 diacid = O=C(O)CCCCCCCCCCCCC(=O)*; αMeY = C[C@](N)(Cc1ccc(O)cc1)C(=O)O; αMeL = CC(C)C[C@](C)(N)C(=O)O; Nle = CCCC[C@H](N)C(=O)O; Orn = NCCC[C@H](N)C(=O)O; AEEA = NCCOCCOCC(=O)O; Aib = CC(C)(N)C(=O)O

Holding throughout (assay): cell-based or functional assay
Assay [1] concerns the target human glucagon-like peptide-1 (GLP-1) receptor (human, UniProt P43220 24-463).
The target in assay [2] is human glucagon receptor (human, UniProt P47871 26-477).
Assay [3] addresses T1, human glucose-dependent insulinotropic polypeptide (GIP) receptor (human, UniProt P48546 22-466).
T1 sequence (looked up): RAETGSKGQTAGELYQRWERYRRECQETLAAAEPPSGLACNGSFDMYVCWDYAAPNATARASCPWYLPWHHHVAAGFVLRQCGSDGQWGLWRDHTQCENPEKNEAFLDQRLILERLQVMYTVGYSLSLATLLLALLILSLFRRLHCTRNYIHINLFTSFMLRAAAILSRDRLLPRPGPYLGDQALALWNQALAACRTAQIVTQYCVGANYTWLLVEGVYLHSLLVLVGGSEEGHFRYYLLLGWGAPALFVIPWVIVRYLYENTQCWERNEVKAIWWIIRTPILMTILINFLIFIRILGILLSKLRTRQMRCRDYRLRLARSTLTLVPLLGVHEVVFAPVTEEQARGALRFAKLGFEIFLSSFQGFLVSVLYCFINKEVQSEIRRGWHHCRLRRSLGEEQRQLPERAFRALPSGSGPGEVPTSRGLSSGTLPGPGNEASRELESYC

B1: Example 274 (peptide)
peptide: YXEGTXTSDXSIXLDXIAQXEFIKXLIKGGPSSGAPPPS
modifications: Aib2, αMeF(2F)6, 4Pal10, αMeL13, Orn16, Aib20, K24(Z), αMeY25, K28(Z), C-terminal NH2; Z = AEEA2-(γ-Glu)-(10-(4-carboxyphenoxy)decanoyl)
Regarding B1, the “cAMP EC50” value in assay [1] was 0.406 nM; in assay [2], more than 9.95 µM; in assay [3], 0.0226 nM.

B2: Example 272 (peptide)
peptide: YXEGTXTSDXSIXLDXKAQXKFIXXLIEGGPSSGAPPPS
modifications: Aib2, αMeF(2F)6, hTyr10, αMeL13, Orn16, K17(Z), Aib20, K21(Z), D-Glu24, αMeY25, C-terminal NH2; Z = AEEA2-CO-(CH2)12-CO2H
With B2, the “cAMP EC50” value in assay [1] is 0.388 nM; in assay [2], more than 9.95 µM; in assay [3], 0.0264 nM.

B3: Example 271 (peptide)
peptide: YXEGTXTSDXSIXLDXKAQXKFIXXLIEGGPSSGAPPPS
modifications: Aib2, αMeF(2F)6, Nle10, αMeL13, Orn16, K17(Z), Aib20, K21(Z), D-Glu24, αMeY25, C-terminal NH2; Z = AEEA2-CO-(CH2)12-CO2H
As to B3, the entries for the “cAMP EC50” value in assay [1], in assay [2] and in assay [3] were 0.494 nM, more than 9.95 µM and 0.0186 nM, respectively.

B4: Example 269 (peptide)
peptide: Y[Aib]EGT[αMePhe(2-F)]TSD[Nle]SI[αMeL]LD[Orn]IAQ[Aib]EFIK([AEEA-AEEA-γGlu-C14 diacid])[αMeY]LIK([AEEA-AEEA-γGlu-C14 diacid])GGPSSGAPPPS-NH2
modifications: N-terminus assumed
SMILES: CCCC[C@H](NC(=O)[C@H](CC(=O)O)NC(=O)[C@H](CO)NC(=O)[C@@H](NC(=O)[C@](C)(Cc1ccccc1F)NC(=O)[C@@H](NC(=O)CNC(=O)[C@H](CCC(=O)O)NC(=O)C(C)(C)NC(=O)[C@@H](N)Cc1ccc(O)cc1)[C@@H](C)O)[C@@H](C)O)C(=O)N[C@@H](CO)C(=O)N[C@H](C(=O)N[C@@](C)(CC(C)C)C(=O)N[C@@H](CC(C)C)C(=O)N[C@@H](CC(=O)O)C(=O)N[C@@H](CCCN)C(=O)N[C@H](C(=O)N[C@@H](C)C(=O)N[C@@H](CCC(N)=O)C(=O)NC(C)(C)C(=O)N[C@@H](CCC(=O)O)C(=O)N[C@@H](Cc1ccccc1)C(=O)N[C@H](C(=O)N[C@@H](CCCCNC(=O)COCCOCCNC(=O)COCCOCCNC(=O)CC[C@H](NC(=O)CCCCCCCCCCCCC(=O)O)C(=O)O)C(=O)N[C@@](C)(Cc1ccc(O)cc1)C(=O)N[C@@H](CC(C)C)C(=O)N[C@H](C(=O)N[C@@H](CCCCNC(=O)COCCOCCNC(=O)COCCOCCNC(=O)CC[C@H](NC(=O)CCCCCCCCCCCCC(=O)O)C(=O)O)C(=O)NCC(=O)NCC(=O)N1CCC[C@H]1C(=O)N[C@@H](CO)C(=O)N[C@@H](CO)C(=O)NCC(=O)N[C@@H](C)C(=O)N1CCC[C@H]1C(=O)N1CCC[C@H]1C(=O)N1CCC[C@H]1C(=O)N[C@@H](CO)C(N)=O)[C@@H](C)CC)[C@@H](C)CC)[C@@H](C)CC)[C@@H](C)CC
Take B4: the “cAMP EC50” value in assay [1] was 1.72 nM; in assay [2], more than 9.95 µM; in assay [3], 0.0335 nM.

B5: Example 251 (peptide)
peptide: YXEGTXTSDXSIXLDXKAQXEFIXXLIEGGPSSGAPPPSK
modifications: Aib2, αMeF(2F)6, 2Nal10, αMeL13, Orn16, K17(Z), Aib20, D-Glu24, αMeY25, K40(Z), C-terminal NH2; Z = AEEA2-(γ-Glu)-CO-(CH2)12-CO2H
With B5, the “cAMP EC50” value in assay [1] is 0.338 nM; in assay [2] it was more than 9.95 µM; in assay [3], 0.0305 nM.

B6: Example 268 (peptide)
peptide: YXEGTXTSDXSIXLDXIAQXKFIXXLIEGGPSSGAPPPSK
modifications: Aib2, αMeF(2F)6, OMeY10, αMeL13, Orn16, Aib20, K21(Z), D-Glu24, αMeY25, K40(Z), C-terminal NH2; Z = AEEA2-CO-(CH2)12-CO2H
As to B6, the “cAMP EC50” value was 0.613 nM in assay [1], more than 9.95 µM in assay [2] and 0.0265 nM in assay [3].

B7: Example 276 (peptide)
peptide: YXEGTXTSDXSIXLDXIAQXKFIXXLIEGGPSSGAPPPSK
modifications: Aib2, αMeF(2F)6, 4Pal10, αMeL13, Orn16, Aib20, K21(Z), D-Glu24, αMeY25, K40(Z), C-terminal NH2; Z = AEEA2-(γ-Glu)-(10-(4-carboxyphenoxy)decanoyl)
As to B7, the “cAMP EC50” value in assay [1] is 0.49 nM; in assay [2], more than 9.95 µM; in assay [3] it was 0.0134 nM.

B8: Example 257 (peptide)
peptide: YXEGTXTSDXSIXLDXKAQXEFIXXLIEGGPSSGAPPPSK
modifications: Aib2, αMeF(2F)6, 2Nal10, αMeL13, Orn16, K17(Z), Aib20, D-Glu24, αMeY25, K40(Z), C-terminal NH2; Z = AEEA2-CO-(CH2)12-CO2H
Regarding B8, the “cAMP EC50” value in assay [1] was 2.03 nM; in assay [2] it was more than 9.95 µM; in assay [3] it was 0.148 nM. For the same molecule, in assay [1], the “cAMP Emax” value came to 82%.

B9: Example 254 (peptide)
peptide: YXEGTXTSDXSIXLDXIAQXKFIXXLIEGGPSSGAPPPSK
modifications: Aib2, αMeF(2F)6, 2Nal10, αMeL13, Orn16, Aib20, K21(Z), D-Glu24, αMeY25, K40(Z), C-terminal NH2; Z = AEEA2-(γ-Glu)-CO-(CH2)12-CO2H
As for B9, the “cAMP EC50” value was 0.507 nM in assay [1], more than 9.95 µM in assay [2] and 0.0273 nM in assay [3].

B10: Example 264 (peptide)
peptide: YXEGTXTSDXSIXLDXIAQXKFIXXLIEGGPSSGAPPPSK
modifications: Aib2, αMeF(2F)6, OMeY10, αMeL13, Orn16, Aib20, K21(Z), D-Glu24, αMeY25, K40(Z), C-terminal NH2; Z = AEEA2-(γ-Glu)-CO-(CH2)12-CO2H
Regarding B10, the “cAMP EC50” value in assay [1] is 0.413 nM; in assay [2] it was more than 9.95 µM; in assay [3] it was 0.0208 nM. Further, the “cAMP Emax” value in assay [3] amounted to 114%.

B11: Example 258 (peptide)
peptide: YXEGTXTSDXSIXLDXIAQXKFIXXLIEGGPSSGAPPPSK
modifications: Aib2, αMeF(2F)6, 2Nal10, αMeL13, Orn16, Aib20, K21(Z), D-Glu24, αMeY25, K40(Z), C-terminal NH2; Z = AEEA2-CO-(CH2)12-CO2H
Regarding B11, the figures for the “cAMP EC50” value in assay [1], in assay [2] and in assay [3] were 0.653 nM, more than 9.95 µM and 0.0473 nM, respectively. Further, the “cAMP Emax” value in assay [3] is 90.3%.

B12: Example 273 (peptide)
peptide: YXEGTXTSDXSIXLDXKAQXEFIXXLIEGGPSSGAPPPSK
modifications: Aib2, αMeF(2F)6, 4Pal10, αMeL13, Orn16, K17(Z), Aib20, D-Glu24, αMeY25, K40(Z), C-terminal NH2; Z = AEEA2-(γ-Glu)-(10-(4-carboxyphenoxy)decanoyl)
For the molecule B12, the “cAMP EC50” value in assay [1] was 2.08 nM; in assay [2], more than 9.95 µM; in assay [3], 0.0166 nM.

B13: Example 261 (peptide)
peptide: YXEGTXTSDXSIXLDXKAQXEFIXXLIEGGPSSGAPPPSK
modifications: Aib2, αMeF(2F)6, OMeY10, αMeL13, Orn16, K17(Z), Aib20, D-Glu24, αMeY25, K40(Z), C-terminal NH2; Z = AEEA2-(γ-Glu)-CO-(CH2)12-CO2H
Take B13: the “cAMP EC50” value was 0.531 nM in assay [1], more than 9.95 µM in assay [2] and 0.025 nM in assay [3].

B14: Example 267 (peptide)
peptide: YXEGTXTSDXSIXLDXKAQXEFIXXLIEGGPSSGAPPPSK
modifications: Aib2, αMeF(2F)6, OMeY10, αMeL13, Orn16, K17(Z), Aib20, D-Glu24, αMeY25, K40(Z), C-terminal NH2; Z = AEEA2-CO-(CH2)12-CO2H
Take B14: the “cAMP EC50” value was 0.271 nM in assay [1], more than 9.95 µM in assay [2] and 0.0162 nM in assay [3].
